# B1: TPR t1 (parent)
# chain: GACCAAUCUGCCCUCAGAGCUCGAGAACAUCUUCGGAUGCAGAGGAGGCAGGCUUCGGUGGCGCGAUAGCGCCAACGUCCUCAACCUCCAAUGCAUCCCACCACAUGAUGAUGCCUGAAGAGCCUUGGUUUUUUG
# Variants of: B1
# Assay: polymerase ribozyme fitness, log enrichment relative to wild type (log ratio); higher = more active; in vitro selection for triplet polymerase activity
# Outline: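 Streptavidin-bead capture of gel-excised extended constructs, followed by RT-PCR, closed a single triplicate in vitro selection round. That round began by annealing PCR-built, transcribed mutant libraries of each subunit of a heterodimeric triplet polymerase ribozyme with a biotinylated primer, the partner subunit and triplets, then incubating them frozen at −7 °C. After Illumina sequencing of inputs and outputs, genotypes needed ≥10 input reads and ≥1 read per output. Fitness is the base-2 logarithm of genotype enrichment over wild-type enrichment, using inverse-variance-weighted replicate averages.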
row,Variant,polymerase ribozyme fitness (log ratio)
1,GACCAAUCUGCCCUCAGAGCUCGAGAACAUCUUCGGAUGCAGAGGAGGCAGGCUUCGGUGGCGCGAUAGCGCCAACGUCCUCAACCUCCAAUGCAUCCCACCACAAGAUUAUGCCUGAAGAGCCUAGGUAUUUUG,-3.03
2,GACCAAUCUGCCCUCAGAGCUCGAGAACAUCUUCGGAUGCAGAGGAGGCAGGCUUCGGUGGCGCGAUAGCGCCAACGUCCUCAACCUCCAAUGCAUCCCACCACAUGAAGCUGACUCAAGAGCCUUGGUUUUUUG,-6.37
3,GACCAAUCUGCCCUCAGAGCUCGAGAACAUCUUCGGAUGCAGAGGAGGCAGGCUUCGGUGGCGCGAUAGCGCCAACGUCCUCAACCUCCAAUGCAUCCCACCACAAGAAGAUGCCUGAAGAGCCUUGGUUUUUUG,-3.73
4,GACCAAUCUGCCCUCAGAGCUCGAGAACAUCUUCGGAUGCAGAGGAGGCAGGCUUCGGUGGCGCGAUAGCGCCAACGUCCUCAACCUCCAAUGCAUCCCACCACAUGAAGAUGCCCGAAGAGCCUUGGUUUUUUG,-7.07
5,GACCAAUCUGCCCUCAGAGCUCGAGAACAUCUUCGGAUGCAGAGGAGGCAGGCUUCGGUGGCGCGAUAGCGCCAACGUCCUCAACCUCCAAUGCAUCCCACCACAAGAUUAUGCCUGAAGAGCCUUGGUUUUUUG,-0.605
6,GACCAAUCUGCCCUCAGAGCUCGAGAACAUCUUCGGAUGCAGAGGAGGCAGGCUUCGGUGGCGCGAUAGCGCCAACGUCCUCAACCUCCAAUGCAUCCCACCACAUGAGGAUGCAUGAAGAGCCUUGGUUUUUUG,-7.19
7,GACCAAUCUGCCCUCAGAGCUCGAGAACAUCUUCGGAUGCAGAGGAGGCAGGCUUCGGUGGCGCGAUAGCGCCAACGUCCUCAACCUCCAAUGCAUCCCACCACAUAAUGAUCCCUGAAGAGCCUUGGUUUUUUG,-5.82
8,GACCAAUCUGCCCUCAGAGCUCGAGAACAUCUUCGGAUGCAGAGGAGGCAGGCUUCGGUGGCGCGAUAGCGCCAACGUCCUCAACCUCCAAUGCAUCCCACCACAUGGUGAUGCCUGAAGAGCCUUGGUUUUUUG,-1.19
9,GACCAAUCUGCCCUCAGAGCUCGAGAACAUCUUCGGAUGCAGAGGAGGCAGGCUUCGGUGGCGCGAUAGCGCCAACGUCCUCAACCUCCAAUGCAUCCCACCACAUGCUGAUGCCUGAAGAGCCUUGGUUUUUUG,-3.71
10,GACCAAUCUGCCCUCAGAGCUCGAGAACAUCUUCGGAUGCAGAGGAGGCAGGCUUCGGUGGCGCGAUAGCGCCAACGUCCUCAACCUCCAAUGCAUCCCACCACAUGUUGAUGCCUGAAGAGCCUUGGUUUUUUG,-4.97
11,GACCAAUCUGCCCUCAGAGCUCGAGAACAUCUUCGGAUGCAGAGGAGGCAGGCUUCGGUGGCGCGAUAGCGCCAACGUCCUCAACCUCCAAUGCAUCCCACCACAAGAUGAUGCCUGAAGAGCCUUCGUUUUUUG,-3.2
12,GACCAAUCUGCCCUCAGAGCUCGAGAACAUCUUCGGAUGCAGAGGAGGCAGGCUUCGGUGGCGCGAUAGCGCCAACGUCCUCAACCUCCAAUGCAUCCCACCACAUGAAGAUGCCUGAAGAGCCUUGGUUUUUUU,-4.82
13,GACCAAUCUGCCCUCAGAGCUCGAGAACAUCUUCGGAUGCAGAGGAGGCAGGCUUCGGUGGCGCGAUAGCGCCAACGUCCUCAACCUCCAAUGCAUCCCACCACAUGAAGAUGCCUGAAGAGACUUGGUUUUUUG,-6.83
14,GACCAAUCUGCCCUCAGAGCUCGAGAACAUCUUCGGAUGCAGAGGAGGCAGGCUUCGGUGGCGCGAUAGCGCCAACGUCCUCAACCUCCAAUGCAUCCCACCACAUGAAGAUGCCUGAAGAGUCUUGGUUUUUUG,-3.85
15,GACCAAUCUGCCCUCAGAGCUCGAGAACAUCUUCGGAUGCAGAGGAGGCAGGCUUCGGUGGCGCGAUAGCGCCAACGUCCUCAACCUCCAAUGCAUCCCACCACAUGAAGAUGCCUGAAGAGCCUUGGUAUUUUG,-5.09
16,GACCAAUCUGCCCUCAGAGCUCGAGAACAUCUUCGGAUGCAGAGGAGGCAGGCUUCGGUGGCGCGAUAGCGCCAACGUCCUCAACCUCCAAUGCAUCCCACCACAUGAAUAUGCCUGAAGAGCCUUGGUUUUUUG,-3.28
17,GACCAAUCUGCCCUCAGAGCUCGAGAACAUCUUCGGAUGCAGAGGAGGCAGGCUUCGGUGGCGCGAUAGCGCCAACGUCCUCAACCUCCAAUGCAUCCCACCACAAGAUGAUGCCUGAAGAACCUUGGUUUUUUG,-0.693
18,GACCAAUCUGCCCUCAGAGCUCGAGAACAUCUUCGGAUGCAGAGGAGGCAGGCUUCGGUGGCGCGAUAGCGCCAACGUCCUCAACCUCCAAUGCAUCCCACCACAUAAUGACGCCUGAAGAGCCUUGGUUUUUUG,-3.85
19,GACCAAUCUGCCCUCAGAGCUCGAGAACAUCUUCGGAUGCAGAGGAGGCAGGCUUCGGUGGCGCGAUAGCGCCAACGUCCUCAACCUCCAAUGCAUCCCACCACAAGAUGAUGCCUGAAGAGCAUUGAUUUUUUG,0.53
20,GACCAAUCUGCCCUCAGAGCUCGAGAACAUCUUCGGAUGCAGAGGAGGCAGGCUUCGGUGGCGCGAUAGCGCCAACGUCCUCAACCUCCAAUGCAUCCCACCACAUGAGGAUGGCUGAAGAGCCUUGGUUUUUUG,-4.93
21,GACCAAUCUGCCCUCAGAGCUCGAGAACAUCUUCGGAUGCAGAGGAGGCAGGCUUCGGUGGCGCGAUAGCGCCAACGUCCUCAACCUCCAAUGCAUCCCACCACAUGGUGAUGCCAGAAGAGUCUUGGUUUUUUG,-6.42

row,Variant,polymerase ribozyme fitness (log ratio)
1,GACCAAUCUGCCCUCAGAGCUCGAGAACAUCUUCGGAUGCAGAGGAGGCAGGCUUCGGUGGCGCGAUAGCGCCAACGUCCUCAACCUCCAAUGCAUCCCACCACAUGAGGAUACCUGAAGAGCCUUCGUUUUUUG,-6.26
2,GACCAAUCUGCCCUCAGAGCUCGAGAACAUCUUCGGAUGCAGAGGAGGCAGGCUUCGGUGGCGCGAUAGCGCCAACGUCCUCAACCUCCAAUGCAUCCCACCACAUGUUGAUGCCUGAAGAGCCUUGGAUUUUUG,-6.43
3,GACCAAUCUGCCCUCAGAGCUCGAGAACAUCUUCGGAUGCAGAGGAGGCAGGCUUCGGUGGCGCGAUAGCGCCAACGUCCUCAACCUCCAAUGCAUCCCACCACAUAAUGAUGCCUGAAGAGCCGUGGUUUUUUG,-5.84
4,GACCAAUCUGCCCUCAGAGCUCGAGAACAUCUUCGGAUGCAGAGGAGGCAGGCUUCGGUGGCGCGAUAGCGCCAACGUCCUCAACCUCCAAUGCAUCCCACCACACGAUGAUGCCUGAAGAGGCUUGGUUUUGUG,-1.72
5,GACCAAUCUGCCCUCAGAGCUCGAGAACAUCUUCGGAUGCAGAGGAGGCAGGCUUCGGUGGCGCGAUAGCGCCAACGUCCUCAACCUCCAAUGCAUCCCACCACACGAAGAUGCCUGAAGUGCCUUGGUUUUUUG,-4.69
6,GACCAAUCUGCCCUCAGAGCUCGAGAACAUCUUCGGAUGCAGAGGAGGCAGGCUUCGGUGGCGCGAUAGCGCCAACGUCCUCAACCUCCAAUGCAUCCCACCACAUAAUGAUGGCUGAAGAGCCUUGAUUUUUUG,-7.24
7,GACCAAUCUGCCCUCAGAGCUCGAGAACAUCUUCGGAUGCAGAGGAGGCAGGCUUCGGUGGCGCGAUAGCGCCAACGUCCUCAACCUCCAAUGCAUCCCACCACAUUAUGAUGCCUGAAGUGCCUUGCUUUUUUG,-4.77
8,GACCAAUCUGCCCUCAGAGCUCGAGAACAUCUUCGGAUGCAGAGGAGGCAGGCUUCGGUGGCGCGAUAGCGCCAACGUCCUCAACCUCCAAUGCAUCCCACCACAUGAGGAUGCCUGAAGAGCCUUGGUUUAUUG,-3.91
9,GACCAAUCUGCCCUCAGAGCUCGAGAACAUCUUCGGAUGCAGAGGAGGCAGGCUUCGGUGGCGCGAUAGCGCCAACGUCCUCAACCUCCAAUGCAUCCCACCACAUUAUGAUGACUGAAGAGCCUUGGUUUUUUG,-7.09
10,GACCAAUCUGCCCUCAGAGCUCGAGAACAUCUUCGGAUGCAGAGGAGGCAGGCUUCGGUGGCGCGAUAGCGCCAACGUCCUCAACCUCCAAUGCAUCCCACCACAUGAGGAUACCUGAAGAGCCUUGGUUUUUUG,-5.72
11,GACCAAUCUGCCCUCAGAGCUCGAGAACAUCUUCGGAUGCAGAGGAGGCAGGCUUCGGUGGCGCGAUAGCGCCAACGUCCUCAACCUCCAAUGCAUCCCACCACUUGAUUAUGCCUGAAGAGCCUUGGUUUUUUG,-6.12
12,GACCAAUCUGCCCUCAGAGCUCGAGAACAUCUUCGGAUGCAGAGGAGGCAGGCUUCGGUGGCGCGAUAGCGCCAACGUCCUCAACCUCCAAUGCAUCCCACCACUUGAUGAUGCCUAAAGAGCCUUGGUUUUUUG,-4.52
13,GACCAAUCUGCCCUCAGAGCUCGAGAACAUCUUCGGAUGCAGAGGAGGCAGGCUUCGGUGGCGCGAUAGCGCCAACGUCCUCAACCUCCAAUGCAUCCCACCACAAGAUGAAGCCUGAAGAGCCUUGGUUUUUUG,0.701
14,GACCAAUCUGCCCUCAGAGCUCGAGAACAUCUUCGGAUGCAGAGGAGGCAGGCUUCGGUGGCGCGAUAGCGCCAACGUCCUCAACCUCCAAUGCAUCCCACCACAAGAUGAGGCCUCAAGAGCCUUGGUUUUUUG,-5.9
15,GACCAAUCUGCCCUCAGAGCUCGAGAACAUCUUCGGAUGCAGAGGAGGCAGGCUUCGGUGGCGCGAUAGCGCCAACGUCCUCAACCUCCAAUGCAUCCCACCACAAGAUGAUGCCUGAAGAGCCUUGGUUUUGUG,-0.54
16,GACCAAUCUGCCCUCAGAGCUCGAGAACAUCUUCGGAUGCAGAGGAGGCAGGCUUCGGUGGCGCGAUAGCGCCAACGUCCUCAACCUCCAAUGCAUCCCACCACAAUAUGAUGCCCGAAGAGCCUUGGUUUUUUG,-7.47
17,GACCAAUCUGCCCUCAGAGCUCGAGAACAUCUUCGGAUGCAGAGGAGGCAGGCUUCGGUGGCGCGAUAGCGCCAACGUCCUCAACCUCCAAUGCAUCCCACCACAUGUUGAUGCCUGAAGAGCAUUGGUUUUUUG,-4.18
18,GACCAAUCUGCCCUCAGAGCUCGAGAACAUCUUCGGAUGCAGAGGAGGCAGGCUUCGGUGGCGCGAUAGCGCCAACGUCCUCAACCUCCAAUGCAUCCCACCACAAGAUGAUGCCUCAAGAGCCUUGGUUUUUUG,-1.94
19,GACCAAUCUGCCCUCAGAGCUCGAGAACAUCUUCGGAUGCAGAGGAGGCAGGCUUCGGUGGCGCGAUAGCGCCAACGUCCUCAACCUCCAAUGCAUCCCACCACAUGGUGAUGCCUGAAGAUCCUUGGUUUUUUG,-1.78
20,GACCAAUCUGCCCUCAGAGCUCGAGAACAUCUUCGGAUGCAGAGGAGGCAGGCUUCGGUGGCGCGAUAGCGCCAACGUCCUCAACCUCCAAUGCAUCCCACCACACUAUGAUGCCUGAAGAGCCUUGGUUUUUUG,-4.63
21,GACCAAUCUGCCCUCAGAGCUCGAGAACAUCUUCGGAUGCAGAGGAGGCAGGCUUCGGUGGCGCGAUAGCGCCAACGUCCUCAACCUCCAAUGCAUCCCACCACAUGGUGAAGCCUGAAGAGCCUUGGUUUUUUG,-2.86
